# According to patent EP2105501A1 (Immatics Biotechnologies GmbH, dated 2009):
# Target: T1, HLA-A*0205 (human)
# T1 construct: Native HLA immunoprecipitated from shock-frozen tumor tissue
# Assay: HLA immunoprecipitation from glioblastoma tissue, peptide elution, ESI-LCMS/MS
binder,measurement,value
ALTTLMHQL (Natural HLA ligand eluted from glioblastoma tissue) [PTP-001],binding result,binds
